Measured values: patent US20170253656A1 (SUTRO BIOPHARMA, published 2017)

T1: hu-CD74 antigen (R&D SYSTEMS catalog #3590-CD-050) (human, UniProt P04233-2 73-232, limits assumed)
T1 construct: Bought antigen; also called rhCD74; human CD74
T1 sequence (looked up): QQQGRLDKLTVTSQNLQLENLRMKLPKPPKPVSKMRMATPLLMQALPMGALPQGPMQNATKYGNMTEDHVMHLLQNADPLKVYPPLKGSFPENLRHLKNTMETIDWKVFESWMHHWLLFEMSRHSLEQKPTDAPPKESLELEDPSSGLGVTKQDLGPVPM


Target: T1, hu-CD74 antigen (R&D SYSTEMS catalog …)
Assay: SPR (Biacore T200), IgG captured on anti-human Fc, rhCD74 analyte
Description: Kinetic binding experiments were performed at 25° C. using 1×HBS-EP+buffer. Kinetic data was collected by injecting test and control antibodies at concentrations of 10, 5 and 2.5 μg/mL for 12 s at a flow rate of 10 μl/min on flow cells 2, 3 and 4 respectively, followed by a buffer wash for 30 s at the same flow rate. Kinetic characterization of antibody samples was carried out with 8 concentrations of a 1:2 dilution series of rhCD74 antigen (R&D Systems) and 2 injections of 0 nM antigen (buffer only). […] Between each ligand capture and analyte binding cycle, regeneration was carried out using 2 injections of 3M MgCl₂ for 30 seconds at 30 μL/min, followed by a 30 second buffer wash step.

Binder | Kd | koff | kon
HC 1251_A06 (wt)/LC 1337_A07 (wt) (antibody, human IgG1, kappa, V domains shown, IgG format) VH: QVQLVESGGGVVQPGRSLRLSCAASGFDFSSYGMHWVRQAPDKGLEWVAVIWDDGSDRYYADSVKGRFTISRDNSKNTLYLQMNSLRAEDTAVYYCARGGTRVLGAIHGTDVWGQGTTVTVSS VL: DIQMTQSPSSLSASVGDRVTITCRASQGISSWVAWYQQKPEKAPKSLIYGASRLQSGVPSRFSGSGSGTDFTLTISSLQPEDFATYYCQQYHTYPLTFGGGTKVEIKR | 168 pM | 0.0001 s⁻¹ | 598000 M⁻¹ s⁻¹
HC 1251_A06 (wt)/LC 1275_C10 (g) (antibody, human IgG1, kappa, V domains shown, IgG format) VH: QVQLVESGGGVVQPGRSLRLSCAASGFDFSSYGMHWVRQAPDKGLEWVAVIWDDGSDRYYADSVKGRFTISRDNSKNTLYLQMNSLRAEDTAVYYCARGGTRVLGAIHGTDVWGQGTTVTVSS VL: DIQMTQSPSSVSASVGDRVTITCRASQGVSSWLAWYQQKPGKAPKLLIYSARYLQSGVPSRFSGSGSGTDFTLTISSLQPEDFATYYCQQYNLYPLTFGGGTKVEIKR | 348 pM | 0.000166 s⁻¹ | 478000 M⁻¹ s⁻¹
HC 1251_A06 (wt)/LC 1275_C10 (wt) (antibody, human IgG1, kappa, IgG format) heavy: not shown light: MDIQMTQSPSSLSASVGDRVTITCRASQGVSSWLAWYQQKPEKAPKSLIYSARYLQSGVPSRFSGSGSGTDFTLTISSLQPEDFATYYCQQYNLYPLTFGGGTKVEIKRTVAAPSVFIFPPSDEQLKSGTASVVCLLNNFYPREAKVQWKVDNALQSGNSQESVTEQDSKDSTYSLSSTLTLSKADYEKHKVYACEVTHQGLSSPVTKSFNRGEC | 245 pM | 0.00016 s⁻¹ | 654000 M⁻¹ s⁻¹
HC 1251_A06 (wt)/LC 1337_A07 (g) (antibody, human IgG1, kappa, V domains shown, IgG format) VH: QVQLVESGGGVVQPGRSLRLSCAASGFDFSSYGMHWVRQAPDKGLEWVAVIWDDGSDRYYADSVKGRFTISRDNSKNTLYLQMNSLRAEDTAVYYCARGGTRVLGAIHGTDVWGQGTTVTVSS VL: DIQMTQSPSSVSASVGDRVTITCRASQGISSWVAWYQQKPGKAPKLLIYGASRLQSGVPSRFSGSGSGTDFTLTISSLQPEDFATYYCQQYHTYPLTFGGGTKVEIKR | 205 pM | 0.000136 s⁻¹ | 660000 M⁻¹ s⁻¹
HC 1251_A06 (wt)/LC 1337_A09 (g) (antibody, human IgG1, kappa, V domains shown, IgG format) VH: QVQLVESGGGVVQPGRSLRLSCAASGFDFSSYGMHWVRQAPDKGLEWVAVIWDDGSDRYYADSVKGRFTISRDNSKNTLYLQMNSLRAEDTAVYYCARGGTRVLGAIHGTDVWGQGTTVTVSS VL: DIQMTQSPSSVSASVGDRVTITCRASQGIGSWLAWYQQKPGKAPKLLIYAADRLQSGVPSRFSGSGSGTDFTLTISSLQPEDFATYYCQQYHTYPLTFGGGTKVEIKR | 180 pM | 0.00011 s⁻¹ | 610000 M⁻¹ s⁻¹
HC 1251_A06 (wt)/LC 1337_A09 (wt) (antibody, human IgG1, kappa, V domains shown, IgG format) VH: QVQLVESGGGVVQPGRSLRLSCAASGFDFSSYGMHWVRQAPDKGLEWVAVIWDDGSDRYYADSVKGRFTISRDNSKNTLYLQMNSLRAEDTAVYYCARGGTRVLGAIHGTDVWGQGTTVTVSS VL: DIQMTQSPSSLSASVGDRVTITCRASQGIGSWLAWYQQKPEKAPKSLIYAADRLQSGVPSRFSGSGSGTDFTLTISSLQPEDFATYYCQQYHTYPLTFGGGTKVEIKR | 156 pM | 9.19e-05 s⁻¹ | 588000 M⁻¹ s⁻¹
HC 1251_A06 (wt)/LC 1337_A10 (g) (antibody, human IgG1, kappa, V domains shown, IgG format) VH: QVQLVESGGGVVQPGRSLRLSCAASGFDFSSYGMHWVRQAPDKGLEWVAVIWDDGSDRYYADSVKGRFTISRDNSKNTLYLQMNSLRAEDTAVYYCARGGTRVLGAIHGTDVWGQGTTVTVSS VL: DIQMTQSPSSVSASVGDRVTITCRASQGISSWVAWYQQKPGKAPKLLIYGSSRLQSGVPSRFSGSGSGTDFTLTISSLQPEDFATYYCQQYNTYPLTFGGGTKVEIKR | 411 pM | 0.000235 s⁻¹ | 571000 M⁻¹ s⁻¹
HC 1251_A06 (wt)/LC 1337_A10 (wt) (antibody, human IgG1, kappa, V domains shown, IgG format) VH: QVQLVESGGGVVQPGRSLRLSCAASGFDFSSYGMHWVRQAPDKGLEWVAVIWDDGSDRYYADSVKGRFTISRDNSKNTLYLQMNSLRAEDTAVYYCARGGTRVLGAIHGTDVWGQGTTVTVSS VL: DIQMTQSPSSLSASVGDRVTITCRASQGISSWVAWYQQKPEKAPKSLIYGSSRLQSGVPSRFSGSGSGTDFTLTISSLQPEDFATYYCQQYNTYPLTFGGGTKVEIKR | 205 pM | 0.000174 s⁻¹ | 847000 M⁻¹ s⁻¹
HC 1251_A06 (g)/LC 1337_A07 (wt) (antibody, human IgG1, kappa, V domains shown, IgG format) VH: QVQLVESGGGVVQPGRSLRLSCAASGFDFSSYGMHWVRQAPGKGLEWVAVIWDDGSDRYYADSVKGRFTISRDNSKNTLYLQMNSLRAEDTAVYYCARGGTRVLGAIHGTDVWGQGTTVTVSS VL: DIQMTQSPSSLSASVGDRVTITCRASQGISSWVAWYQQKPEKAPKSLIYGASRLQSGVPSRFSGSGSGTDFTLTISSLQPEDFATYYCQQYHTYPLTFGGGTKVEIKR | 166 pM | 9.4e-05 s⁻¹ | 568000 M⁻¹ s⁻¹
HC 1251_A06 (g)/LC 1275_C10 (g) (antibody, human IgG1, kappa, V domains shown, IgG format) VH: QVQLVESGGGVVQPGRSLRLSCAASGFDFSSYGMHWVRQAPGKGLEWVAVIWDDGSDRYYADSVKGRFTISRDNSKNTLYLQMNSLRAEDTAVYYCARGGTRVLGAIHGTDVWGQGTTVTVSS VL: DIQMTQSPSSVSASVGDRVTITCRASQGVSSWLAWYQQKPGKAPKLLIYSARYLQSGVPSRFSGSGSGTDFTLTISSLQPEDFATYYCQQYNLYPLTFGGGTKVEIKR | 209 pM | 0.000148 s⁻¹ | 705000 M⁻¹ s⁻¹
HC 1251_A06 (g)/LC 1275_C10 (wt) (antibody, human IgG1, kappa, V domains shown, IgG format) VH: QVQLVESGGGVVQPGRSLRLSCAASGFDFSSYGMHWVRQAPGKGLEWVAVIWDDGSDRYYADSVKGRFTISRDNSKNTLYLQMNSLRAEDTAVYYCARGGTRVLGAIHGTDVWGQGTTVTVSS VL: DIQMTQSPSSLSASVGDRVTITCRASQGVSSWLAWYQQKPEKAPKSLIYSARYLQSGVPSRFSGSGSGTDFTLTISSLQPEDFATYYCQQYNLYPLTFGGGTKVEIKR | 341 pM | 0.000177 s⁻¹ | 520000 M⁻¹ s⁻¹
HC 1251_A06 (g)/LC 1337_A07 (g) (antibody, human IgG1, kappa, V domains shown, IgG format) VH: QVQLVESGGGVVQPGRSLRLSCAASGFDFSSYGMHWVRQAPGKGLEWVAVIWDDGSDRYYADSVKGRFTISRDNSKNTLYLQMNSLRAEDTAVYYCARGGTRVLGAIHGTDVWGQGTTVTVSS VL: DIQMTQSPSSVSASVGDRVTITCRASQGISSWVAWYQQKPGKAPKLLIYGASRLQSGVPSRFSGSGSGTDFTLTISSLQPEDFATYYCQQYHTYPLTFGGGTKVEIKR | 168 pM | 7.1e-05 s⁻¹ | 424000 M⁻¹ s⁻¹
HC 1251_A06 (g)/LC 1337_A09 (g) (antibody, human IgG1, kappa, V domains shown, IgG format) VH: QVQLVESGGGVVQPGRSLRLSCAASGFDFSSYGMHWVRQAPGKGLEWVAVIWDDGSDRYYADSVKGRFTISRDNSKNTLYLQMNSLRAEDTAVYYCARGGTRVLGAIHGTDVWGQGTTVTVSS VL: DIQMTQSPSSVSASVGDRVTITCRASQGIGSWLAWYQQKPGKAPKLLIYAADRLQSGVPSRFSGSGSGTDFTLTISSLQPEDFATYYCQQYHTYPLTFGGGTKVEIKR | 131 pM | 7.26e-05 s⁻¹ | 552000 M⁻¹ s⁻¹
HC 1251_A06 (g)/LC 1337_A09 (wt) (antibody, human IgG1, kappa, V domains shown, IgG format) VH: QVQLVESGGGVVQPGRSLRLSCAASGFDFSSYGMHWVRQAPGKGLEWVAVIWDDGSDRYYADSVKGRFTISRDNSKNTLYLQMNSLRAEDTAVYYCARGGTRVLGAIHGTDVWGQGTTVTVSS VL: DIQMTQSPSSLSASVGDRVTITCRASQGIGSWLAWYQQKPEKAPKSLIYAADRLQSGVPSRFSGSGSGTDFTLTISSLQPEDFATYYCQQYHTYPLTFGGGTKVEIKR | 189 pM | 8.63e-05 s⁻¹ | 457000 M⁻¹ s⁻¹
HC 1251_A06 (g)/LC 1337_A10 (g) (antibody, human IgG1, kappa, V domains shown, IgG format) VH: QVQLVESGGGVVQPGRSLRLSCAASGFDFSSYGMHWVRQAPGKGLEWVAVIWDDGSDRYYADSVKGRFTISRDNSKNTLYLQMNSLRAEDTAVYYCARGGTRVLGAIHGTDVWGQGTTVTVSS VL: DIQMTQSPSSVSASVGDRVTITCRASQGISSWVAWYQQKPGKAPKLLIYGSSRLQSGVPSRFSGSGSGTDFTLTISSLQPEDFATYYCQQYNTYPLTFGGGTKVEIKR | 389 pM | 0.000148 s⁻¹ | 380000 M⁻¹ s⁻¹
HC 1251_A06 (g)/LC 1337_A10 (wt) (antibody, human IgG1, kappa, V domains shown, IgG format) VH: QVQLVESGGGVVQPGRSLRLSCAASGFDFSSYGMHWVRQAPGKGLEWVAVIWDDGSDRYYADSVKGRFTISRDNSKNTLYLQMNSLRAEDTAVYYCARGGTRVLGAIHGTDVWGQGTTVTVSS VL: DIQMTQSPSSLSASVGDRVTITCRASQGISSWVAWYQQKPEKAPKSLIYGSSRLQSGVPSRFSGSGSGTDFTLTISSLQPEDFATYYCQQYNTYPLTFGGGTKVEIKR | 188 pM | 9.03e-05 s⁻¹ | 479000 M⁻¹ s⁻¹
HC 1251_B08 (g)/LC 1337_A07 (wt) (antibody, human IgG1, kappa, V domains shown, IgG format) VH: QVQLVESGGGVVQPGRSLRLSCAASGFNFSDYGMHWVRQAPGKGLEWVAVIWYDGSISYYADSVKGRFTISRDNSKNTLYLQMNSLRAEDTAVYYCARGGTVEHGAVYGTDVWGQGTTVTVSS VL: DIQMTQSPSSLSASVGDRVTITCRASQGISSWVAWYQQKPEKAPKSLIYGASRLQSGVPSRFSGSGSGTDFTLTISSLQPEDFATYYCQQYHTYPLTFGGGTKVEIKR | 349 pM | 9.23e-05 s⁻¹ | 265000 M⁻¹ s⁻¹
HC 1251_B08 (g)/LC 1337_A10 (wt) (antibody, human IgG1, kappa, V domains shown, IgG format) VH: QVQLVESGGGVVQPGRSLRLSCAASGFNFSDYGMHWVRQAPGKGLEWVAVIWYDGSISYYADSVKGRFTISRDNSKNTLYLQMNSLRAEDTAVYYCARGGTVEHGAVYGTDVWGQGTTVTVSS VL: DIQMTQSPSSLSASVGDRVTITCRASQGISSWVAWYQQKPEKAPKSLIYGSSRLQSGVPSRFSGSGSGTDFTLTISSLQPEDFATYYCQQYNTYPLTFGGGTKVEIKR | 385 pM | 0.00012 s⁻¹ | 312000 M⁻¹ s⁻¹
